From patent publication US20050226876A1 (Hoffmann-La Roche, published 2005) come the findings set out here.

Test [1] has as its target T1, human complement factor C1q (human, UniProt P02745 23-245; P02746 28-253; P02747 29-245).
T1 construct: also called Clq
The test is described as follows: C1q ELISA, antibody coated 0.16-20 µg/ml. As to the method: (§1) In principle, the ELISA plate is coated with concentration ranges of the antibody, to which human C1q or human pooled serum, as a source of C3, is added. C1q or […] binding is detected by an antibody directed against human C1q or […] followed by a peroxidase-labeled conjugate.

The target in test [2] is T2, rat P-selectin (on thrombin-activated rat platelets) (rat, UniProt P98106 42-768).
T2 construct: whole, on cells
T2 sequence (looked up): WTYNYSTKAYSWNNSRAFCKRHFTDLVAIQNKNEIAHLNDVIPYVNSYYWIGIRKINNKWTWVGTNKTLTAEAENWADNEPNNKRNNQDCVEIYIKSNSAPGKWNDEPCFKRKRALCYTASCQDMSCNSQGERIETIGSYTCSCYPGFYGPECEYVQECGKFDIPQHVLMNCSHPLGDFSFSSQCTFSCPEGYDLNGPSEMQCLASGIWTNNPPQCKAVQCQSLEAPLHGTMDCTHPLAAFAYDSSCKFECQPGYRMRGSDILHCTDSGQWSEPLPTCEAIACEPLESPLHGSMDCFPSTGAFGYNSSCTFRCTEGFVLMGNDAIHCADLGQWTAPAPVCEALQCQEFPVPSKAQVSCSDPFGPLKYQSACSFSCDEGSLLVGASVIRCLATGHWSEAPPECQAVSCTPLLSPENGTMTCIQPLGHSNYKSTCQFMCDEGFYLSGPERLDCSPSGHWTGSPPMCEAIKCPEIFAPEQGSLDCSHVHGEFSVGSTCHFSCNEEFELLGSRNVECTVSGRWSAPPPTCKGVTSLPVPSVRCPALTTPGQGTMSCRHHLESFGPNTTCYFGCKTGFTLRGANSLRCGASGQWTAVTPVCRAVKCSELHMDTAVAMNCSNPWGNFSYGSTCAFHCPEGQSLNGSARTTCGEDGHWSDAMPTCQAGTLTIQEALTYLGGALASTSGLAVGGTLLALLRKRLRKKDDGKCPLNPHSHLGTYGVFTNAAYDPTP
The test is described as follows: rosetting assay: adhesion of thrombin-activated rat platelets to HL60 cells, FACS; absence of inhibition, shown as lack of cross-reactivity with rat P-selectin.

The target of test [3] is T3, cynomologus P-selectin (on thrombin-activated cynomologus platelets) (cynomologus monkey).
T3 chain: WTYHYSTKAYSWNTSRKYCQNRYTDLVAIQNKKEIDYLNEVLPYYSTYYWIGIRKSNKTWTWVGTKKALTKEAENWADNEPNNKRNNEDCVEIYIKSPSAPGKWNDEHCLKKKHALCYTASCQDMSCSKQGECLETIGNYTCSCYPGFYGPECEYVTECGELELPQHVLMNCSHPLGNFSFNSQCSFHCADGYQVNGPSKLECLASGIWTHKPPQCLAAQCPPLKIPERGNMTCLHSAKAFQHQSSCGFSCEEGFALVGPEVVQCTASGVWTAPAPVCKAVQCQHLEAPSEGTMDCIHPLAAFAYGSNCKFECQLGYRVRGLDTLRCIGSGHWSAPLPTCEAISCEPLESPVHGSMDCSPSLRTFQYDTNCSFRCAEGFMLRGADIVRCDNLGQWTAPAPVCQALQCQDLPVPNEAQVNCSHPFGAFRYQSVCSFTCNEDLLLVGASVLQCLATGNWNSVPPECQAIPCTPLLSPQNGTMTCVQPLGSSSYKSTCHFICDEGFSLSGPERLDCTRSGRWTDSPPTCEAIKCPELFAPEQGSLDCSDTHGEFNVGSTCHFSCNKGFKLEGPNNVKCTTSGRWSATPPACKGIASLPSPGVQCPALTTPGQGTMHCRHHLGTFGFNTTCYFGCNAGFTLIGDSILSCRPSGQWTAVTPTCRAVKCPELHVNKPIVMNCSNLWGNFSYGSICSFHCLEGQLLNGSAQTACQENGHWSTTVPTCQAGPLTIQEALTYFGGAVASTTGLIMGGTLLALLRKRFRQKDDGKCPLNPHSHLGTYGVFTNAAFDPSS
In words: cell-based or functional assay.

The target of test [4] is T4, human complement factor C3 (from human pooled serum) (human, UniProt P01024 23-1663, limits assumed).
T4 construct: The ELISA detects C3 (C3c) deposited on the coated antibody out of serum; also called C3c
T4 sequence (P01024 23-1663 limits assumed): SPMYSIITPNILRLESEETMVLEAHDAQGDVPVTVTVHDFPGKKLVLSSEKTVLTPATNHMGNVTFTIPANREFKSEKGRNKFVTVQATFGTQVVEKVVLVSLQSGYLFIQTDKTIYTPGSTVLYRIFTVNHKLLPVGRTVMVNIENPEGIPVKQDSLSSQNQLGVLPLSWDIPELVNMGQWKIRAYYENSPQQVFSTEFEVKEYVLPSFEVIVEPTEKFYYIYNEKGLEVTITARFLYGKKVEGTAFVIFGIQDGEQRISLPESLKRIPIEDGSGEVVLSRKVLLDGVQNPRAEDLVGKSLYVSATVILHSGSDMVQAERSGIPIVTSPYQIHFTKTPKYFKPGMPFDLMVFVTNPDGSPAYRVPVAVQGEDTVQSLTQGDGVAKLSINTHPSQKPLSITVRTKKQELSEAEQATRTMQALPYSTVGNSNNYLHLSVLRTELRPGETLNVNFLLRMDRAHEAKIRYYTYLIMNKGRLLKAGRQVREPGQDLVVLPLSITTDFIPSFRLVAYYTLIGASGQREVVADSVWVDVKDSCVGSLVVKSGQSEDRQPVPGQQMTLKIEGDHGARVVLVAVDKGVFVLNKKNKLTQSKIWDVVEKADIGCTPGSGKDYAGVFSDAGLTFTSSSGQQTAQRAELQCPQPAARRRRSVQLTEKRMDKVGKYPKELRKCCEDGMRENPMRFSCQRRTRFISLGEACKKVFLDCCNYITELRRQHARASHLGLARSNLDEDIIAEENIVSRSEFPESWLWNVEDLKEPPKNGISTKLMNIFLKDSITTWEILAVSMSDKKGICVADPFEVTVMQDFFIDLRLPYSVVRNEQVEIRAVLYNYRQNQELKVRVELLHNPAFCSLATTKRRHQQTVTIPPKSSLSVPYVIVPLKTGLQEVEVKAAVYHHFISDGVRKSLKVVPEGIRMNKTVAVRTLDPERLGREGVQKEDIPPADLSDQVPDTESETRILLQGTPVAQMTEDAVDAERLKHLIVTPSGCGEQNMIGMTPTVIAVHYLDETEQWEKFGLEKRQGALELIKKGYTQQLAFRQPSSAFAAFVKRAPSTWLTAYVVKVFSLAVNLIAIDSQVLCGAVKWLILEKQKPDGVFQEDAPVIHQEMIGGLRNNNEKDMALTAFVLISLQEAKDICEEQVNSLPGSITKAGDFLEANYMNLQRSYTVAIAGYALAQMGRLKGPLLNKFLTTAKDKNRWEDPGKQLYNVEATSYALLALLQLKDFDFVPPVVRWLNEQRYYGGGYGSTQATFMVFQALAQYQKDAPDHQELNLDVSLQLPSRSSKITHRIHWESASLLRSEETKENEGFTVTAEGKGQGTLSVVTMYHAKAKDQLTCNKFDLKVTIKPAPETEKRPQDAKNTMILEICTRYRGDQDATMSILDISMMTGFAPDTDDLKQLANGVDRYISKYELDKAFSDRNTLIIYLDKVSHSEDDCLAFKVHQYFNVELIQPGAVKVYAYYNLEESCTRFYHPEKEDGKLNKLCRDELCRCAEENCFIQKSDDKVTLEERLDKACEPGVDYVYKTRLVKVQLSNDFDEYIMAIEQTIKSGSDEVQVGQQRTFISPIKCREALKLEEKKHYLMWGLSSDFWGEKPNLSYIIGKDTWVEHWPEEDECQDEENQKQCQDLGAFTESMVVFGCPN
The test is described as follows: C3 ELISA, antibody coated, human pooled serum. As to the method:
as §1
(ELISA stands for enzyme-linked immunosorbent assay.)

T1 sequence (P02745 23-245 limits assumed, chain 1 of 3): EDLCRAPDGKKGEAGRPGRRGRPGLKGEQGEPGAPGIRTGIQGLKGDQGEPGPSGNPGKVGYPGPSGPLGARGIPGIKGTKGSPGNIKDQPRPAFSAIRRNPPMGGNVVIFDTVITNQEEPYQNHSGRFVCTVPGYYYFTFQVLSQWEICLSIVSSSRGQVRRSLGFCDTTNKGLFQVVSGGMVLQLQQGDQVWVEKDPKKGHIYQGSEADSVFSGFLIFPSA
T1 sequence (P02746 28-253 limits assumed, chain 2 of 3): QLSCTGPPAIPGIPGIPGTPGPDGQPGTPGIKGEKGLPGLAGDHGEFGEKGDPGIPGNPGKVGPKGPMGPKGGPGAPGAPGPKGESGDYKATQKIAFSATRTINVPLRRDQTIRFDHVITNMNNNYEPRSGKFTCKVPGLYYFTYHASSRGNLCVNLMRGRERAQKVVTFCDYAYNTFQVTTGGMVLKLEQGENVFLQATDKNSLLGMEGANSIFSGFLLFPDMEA
T1 sequence (P02747 29-245 limits assumed, chain 3 of 3): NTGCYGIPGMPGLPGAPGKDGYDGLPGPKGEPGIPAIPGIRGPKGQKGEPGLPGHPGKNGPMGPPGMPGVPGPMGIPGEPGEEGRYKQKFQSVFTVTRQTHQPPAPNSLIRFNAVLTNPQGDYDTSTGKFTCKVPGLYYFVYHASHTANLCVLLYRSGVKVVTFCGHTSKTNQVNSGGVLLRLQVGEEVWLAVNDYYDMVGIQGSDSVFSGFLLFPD

B1: HuMab 002 Fc variant IgG1v1 (PVA-236; GLPSS331: E233P; L234V; L235A; delta G236; A327G; A330S; P331S) (antibody)
heavy: EVQLVESGGGLVRPGGSLRLSCAASGFTFSNYDMHWVRQATGKGLEWVSAITAAGDIYYPGSVKGRFTISRENAKNSLYLQMNSLRAGDTAVYYCARGRYSGSGSYYNDWFDPWGQGTLVTVSSASTKGPSVFPLAPSSKSTSGGTAALGCLVKDYFPEPVTVSWNSGALTSGVHTFPAVLQSSGLYSLSSVVTVPSSSLGTQTYICNVNHKPSNTKVDKKVEPKSCDKTHTCPPCPAPPVAGPSVFLFPPKPKDTLMISRTPEVTCVVVDVSHEDPEVKFNWYVDGVEVHNAKTKPREEQYNSTYRVVSVLTVLHQDWLNGKEYKCKVSNKGLPSSIEKTISKAKGQPREPQVYTLPPSRDELTKNQVSLTCLVKGFYPSDIAVEWESNGQPENNYKTTPPVLDSDGSFFLYSKLTVDKSRWQQGNVFSCSVMHEALHNHYTQKSLSLSPGK
light: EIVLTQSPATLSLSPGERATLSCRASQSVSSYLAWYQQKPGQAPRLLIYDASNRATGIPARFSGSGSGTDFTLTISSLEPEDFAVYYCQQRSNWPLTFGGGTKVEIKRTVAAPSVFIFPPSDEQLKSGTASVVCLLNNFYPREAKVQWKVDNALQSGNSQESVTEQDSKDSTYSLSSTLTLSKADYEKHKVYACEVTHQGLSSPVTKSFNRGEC
notes: copies: 2 + 2
Turning to B1, the values for the binding result in test [1], in test [2] and in test [4] were “no binding”, “no binding (tested: 100 µg/ml)” and “no binding”, respectively. The “IC50 (read off the curve), rosetting assay with thrombin-activated cynomologus platelets and HL60 cells” value in test [3] was about 0.2 µg/ml.
